In article PMC2839365 (Biochemical and biophysical research communications, 2010):
Like-named read-outs stand apart in the source and are kept apart here.

What was measured:
Test in all cases: ITC
βI14-15 T1788A [1] = target: βI14-15 T1788A
βI14-15 E1784A = target: βI14-15 E1784A
βI14-15 D1700A = target: βI14-15 D1700A
βI14-15 E1703A = target: βI14-15 E1703A
βI14-15 A1867P = target: βI14-15 A1867P
βI14-15 E1710A = target: βI14-15 E1710A
[2] = target: wild type βI-spectrin 14-15 di-repeat
βI14-15 D1781A = target: βI14-15 D1781A
βI14-15 D1701A = target: βI14-15 D1701A
βI14-15 E1708A = target: βI14-15 E1708A
βI14-15 Y1866A = target: βI14-15 Y1866A
βI14-15 T1788A [3] = target: βI14-15 T1788A; remark: listed apart in the source

B1: ZU5 domain of ankyrin (domain or fragment)
chain: FLVSFMVDARGGSMRGSRHNGLRVVIPPRTCAAPTRITCRLVKPQKLSTPPPLAEEEGLASRIIALGPTGAQFLSPVIVEIPHFASHGRGDRELVVLRSENGSVWKEHRSRYGESYLDQILNGMDEELGSLEELEKKRVCRIITTDFPLYFVIMSR
**Q.** With B1 as the binder, how does the Kd (βI14-15 T1788A [1]) read?
**A.** 5800 nM

**Q.** And the Kd (βI14-15 E1784A)?
**A.** 43400 nM

**Q.** And the Kd (βI14-15 D1700A)?
**A.** 440 nM

**Q.** And the Kd (βI14-15 E1703A)?
**A.** 320 nM

**Q.** What about the Kd (βI14-15 A1867P) of the same binder?
**A.** 14900 nM

**Q.** What about the Kd (βI14-15 E1710A) of the same binder?
**A.** 1700 nM

**Q.** And the Kd [2]?
**A.** 190 nM

**Q.** What about the Kd (βI14-15 D1781A) of the same binder?
**A.** 2100 nM

**Q.** And the Kd (βI14-15 D1701A)?
**A.** 360 nM

**Q.** What about the Kd (βI14-15 E1708A) of the same binder?
**A.** 430 nM

**Q.** And the Kd (βI14-15 Y1866A)?
**A.** 22000 nM

**Q.** And the Kd (βI14-15 T1788A [3])?
**A.** 5730 nM
